The values below are quoted from earlier work in paper PMC8002558.

Usually Kd stands for a measure of binding affinity in units of concentration.

This data set deals with Fibrinogen (Homo sapiens) (UniProt P02671).
Chain of UniProt P02671 (P02671 36-866, chain 1 of 3): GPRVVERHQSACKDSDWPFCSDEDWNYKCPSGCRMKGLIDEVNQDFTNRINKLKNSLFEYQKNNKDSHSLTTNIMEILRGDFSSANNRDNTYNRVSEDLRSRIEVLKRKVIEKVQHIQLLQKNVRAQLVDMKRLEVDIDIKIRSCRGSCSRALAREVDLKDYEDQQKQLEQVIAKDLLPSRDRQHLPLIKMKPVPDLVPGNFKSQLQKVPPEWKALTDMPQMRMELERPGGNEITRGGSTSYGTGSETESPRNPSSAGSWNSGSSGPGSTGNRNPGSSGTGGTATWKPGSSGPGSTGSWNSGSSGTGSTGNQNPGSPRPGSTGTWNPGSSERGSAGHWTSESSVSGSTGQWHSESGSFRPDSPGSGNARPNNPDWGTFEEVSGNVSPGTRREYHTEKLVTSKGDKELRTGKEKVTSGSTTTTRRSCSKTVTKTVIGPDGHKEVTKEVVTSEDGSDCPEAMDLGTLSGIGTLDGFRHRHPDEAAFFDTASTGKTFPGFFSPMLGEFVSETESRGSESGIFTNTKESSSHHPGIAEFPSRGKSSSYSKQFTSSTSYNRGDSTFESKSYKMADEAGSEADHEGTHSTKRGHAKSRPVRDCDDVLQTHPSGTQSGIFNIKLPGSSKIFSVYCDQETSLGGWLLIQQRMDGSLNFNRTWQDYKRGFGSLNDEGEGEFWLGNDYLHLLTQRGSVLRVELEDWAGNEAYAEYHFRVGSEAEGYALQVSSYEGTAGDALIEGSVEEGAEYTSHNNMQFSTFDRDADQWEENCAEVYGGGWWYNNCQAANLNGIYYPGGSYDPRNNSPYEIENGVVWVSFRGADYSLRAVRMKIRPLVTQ
Chain of UniProt P02671 (P02675 45-491, chain 2 of 3, further chain): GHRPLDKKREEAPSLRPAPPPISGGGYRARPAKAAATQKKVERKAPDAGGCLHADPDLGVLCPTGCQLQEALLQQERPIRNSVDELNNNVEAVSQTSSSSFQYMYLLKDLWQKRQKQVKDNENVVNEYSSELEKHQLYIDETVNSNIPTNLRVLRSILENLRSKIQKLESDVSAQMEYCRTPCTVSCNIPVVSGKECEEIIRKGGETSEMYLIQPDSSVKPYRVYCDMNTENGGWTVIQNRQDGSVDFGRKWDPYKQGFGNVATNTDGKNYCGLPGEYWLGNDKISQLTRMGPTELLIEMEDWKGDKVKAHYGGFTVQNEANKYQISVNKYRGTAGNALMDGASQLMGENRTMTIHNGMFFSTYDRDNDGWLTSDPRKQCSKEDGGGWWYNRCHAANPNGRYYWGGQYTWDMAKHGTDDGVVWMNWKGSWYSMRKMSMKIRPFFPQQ
Chain of UniProt P02671 (P02679 27-453, chain 3 of 3, further chain): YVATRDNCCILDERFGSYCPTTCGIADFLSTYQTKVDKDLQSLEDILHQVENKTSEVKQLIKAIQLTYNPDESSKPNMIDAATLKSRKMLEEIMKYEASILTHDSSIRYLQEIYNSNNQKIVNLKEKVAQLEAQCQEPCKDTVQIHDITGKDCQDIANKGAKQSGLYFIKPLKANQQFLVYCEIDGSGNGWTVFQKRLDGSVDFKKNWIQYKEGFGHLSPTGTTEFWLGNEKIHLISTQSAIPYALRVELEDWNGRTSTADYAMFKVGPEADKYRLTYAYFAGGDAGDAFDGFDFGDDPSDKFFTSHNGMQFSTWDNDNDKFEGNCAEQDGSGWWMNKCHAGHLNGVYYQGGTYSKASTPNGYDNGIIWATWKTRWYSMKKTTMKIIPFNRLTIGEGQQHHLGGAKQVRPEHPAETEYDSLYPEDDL

With “Factor XIII (plasma) (from UniProt P00488)”, the dissociation constant Kd was 10 nM.
